Reference: article PMC7205312
Residue numbers refer to the chain shown, from its start. Numbers in names are those of the source.

How the values were obtained:
Assay in all cases: co-IP (IP anti-Myc beads, IB anti-HA), band intensity by ImageJ
Details in all cases: chain shown with the change; NB-ARC-HA co-expressed with NB-ARC-Myc; parent: 1.00
[1] = molecular target: T1, Tm-2^2 NB-ARC (D481V, L233A), Q71BG9
T1 chain: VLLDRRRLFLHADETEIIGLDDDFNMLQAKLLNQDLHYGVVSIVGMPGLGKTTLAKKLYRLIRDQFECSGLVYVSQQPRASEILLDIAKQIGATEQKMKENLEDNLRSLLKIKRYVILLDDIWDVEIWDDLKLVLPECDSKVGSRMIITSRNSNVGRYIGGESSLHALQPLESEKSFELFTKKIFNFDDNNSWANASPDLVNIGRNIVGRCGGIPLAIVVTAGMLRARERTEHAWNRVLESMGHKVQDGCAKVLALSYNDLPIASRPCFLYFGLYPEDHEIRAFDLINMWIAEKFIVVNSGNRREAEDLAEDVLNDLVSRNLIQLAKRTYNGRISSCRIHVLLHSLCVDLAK

[2] = molecular target: T2, Tm-2^2 NB-ARC (D481V, L246A), Q71BG9
T2 chain: T1 chain with A93L, L106A

[3] = molecular target: T3, Tm-2^2 NB-ARC (D481V, L242A), Q71BG9
T3 chain: T1 chain with A93L, L102A

B1: Tm-2^2 NB-ARC (D481V), Q71BG9 L233A; D481V (protein)
chain: T1 chain
ratio to parent [1]: 0.64

B2: Tm-2^2 NB-ARC (D481V), Q71BG9 L246A; D481V (protein)
chain: T1 chain with A93L, L106A
ratio to parent [2]: 0.45

B3: Tm-2^2 NB-ARC (D481V), Q71BG9 L242A; D481V (protein)
chain: T1 chain with A93L, L102A
ratio to parent [3]: 0.62
